Here are results for seven molecules from article PMC5389568.

First the molecules themselves.
B1: E-box 12-mer C/5mC (dsDNA)
DNA 1: TGCCACGTGACC
DNA 2: GGTCACGTGGCA
modifications: 5mC at position 6 of strand 2
B2: E-box 12-mer C/5hmC (dsDNA)
DNA 1: TGCCACGTGACC
DNA 2: GGTCACGTGGCA
modifications: 5hmC at position 6 of strand 2
B3: E-box 12-mer C/5fC (dsDNA)
DNA 1: TGCCACGTGACC
DNA 2: GGTCACGTGGCA
modifications: 5fC at position 6 of strand 2
B4: E-box 12-mer C/5caC (dsDNA)
DNA 1: TGCCACGTGACC
DNA 2: GGTCACGTGGCA
modifications: 5caC at position 6 of strand 2
B5: E-box 12-mer C/C (dsDNA)
DNA 1: TGCCACGTGACC
DNA 2: GGTCACGTGGCA
B6: Control-1 (dsDNA)
DNA 1: GTCAGCGCATGG
DNA 2: CCATGCGCTGAC
B7: Control-2 (dsDNA)
DNA 1: GAGGCGTGGC
DNA 2: TTGCCACGCCTC

The target in one data set is T1, MAX full length (Homo sapiens, UniProt P61244 1-160). Put plainly: fluorescence polarization.
T1 sequence (P61244 whole entry): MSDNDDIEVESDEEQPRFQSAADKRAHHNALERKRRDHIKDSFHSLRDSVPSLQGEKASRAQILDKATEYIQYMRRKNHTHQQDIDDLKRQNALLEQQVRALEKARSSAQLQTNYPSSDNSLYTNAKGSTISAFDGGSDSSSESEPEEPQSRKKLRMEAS
In the case of B1, the binding signal is > 13 fold weaker than C.

Turning to B2, the binding signal was > 13 fold weaker than C.

As for B3, the binding signal was 8 fold weaker than C.

In another data set the target is MAX H28R (Homo sapiens, UniProt P61244 1-160, H28R). Put plainly: fluorescence polarization. Background: Fluorescence polarisation rises when a labelled molecule tumbles more slowly, as on binding a larger partner.
Sequence of MAX H28R (P61244 whole entry H28R): as the sequence (P61244 whole entry) above, with H28R counted along it
On to B1, for which the Kd is < 5 nM.

As to B4, the Kd is < 5 nM.

B2: the Kd is < 5 nM.

Take B5: the Kd was < 5 nM.

Turning to B3, the Kd was < 5 nM.

For the next data set, the target named is T1, MAX full length. Put plainly: fluorescence polarization. The source holds these as a separate data set.
On to B6, for which the binding result was “no binding”.

On to B7, for which the binding result is “no binding”.

A word on the Kd: it is the equilibrium constant for the complex coming apart.
